Results on two substances are retold here after article PMC3790826.

For test [1], the target named is rice RAD51A2 (japonica cultivar Nipponbare), His6 tag removed (Oryza sativa (japonica cultivar Nipponbare)). Kind of test: SEC; Superdex 200 GL 10/300; 70 µg protein incubated 30 min at room temperature without nucleotide (the printed oligomer sizes), with 1 mM ATP (apparent sizes drastically increased) or with 1 mM ADP (no such change); elution in 20 mM HEPES-NaOH pH 7.5, 400 mM NaCl, 0.1 mM EDTA, 2 mM 2-mercaptoethanol, 1 mM MgCl2; apparent molecular sizes. For orientation: Size exclusion chromatography separates by hydrodynamic size, large species first.

In test [2] the target is rice RAD51A1 (japonica cultivar Nipponbare), His6 tag removed (Oryza sativa (japonica cultivar Nipponbare)). The description is as above.

What is called stoichiometry N is the number of molecules, sites or subunits per partner or assembly. With “rice RAD51A2 (japonica cultivar Nipponbare), His6 tag removed (natural protein)”, the stoichiometry N in test [1] is 5 -mer.

For “rice RAD51A1 (japonica cultivar Nipponbare), His6 tag removed (natural protein)”, in test [2], the stoichiometry N was 8 -mer.
